B1: SWI/SNF complex subunit SMARCC2, residues 599 to 641; numbered along this chain, Q8TAQ2 (parent)
chain: REWTEQETLLLLEALEMYKDDWNKVSEHVGSRTQDECILHFLR
B2: Zinc finger homeobox protein 4, residues 2183 to 2238; numbered along this chain, Q86UP3 (parent)
chain: SSRTRFTDYQLRVLQDFFDTNAYPKDDEIEQLSTVLNLPTRVIVVWFQNARQKARK

Variants of: B1
Test: abundance fitness (aPCA) (normalised: wild type 0, dead -1); higher = more abundant; growth selection in yeast, the domain comes from the species named
Conditions: Homo sapiens

Abundance fitness: each site, then its substitutions
R1: G 0.142; P -0.025; E 0.251; M 0.298; F 0.36; C 0.225; Q 0.526; I 0.382; K 0.35; L 0.094; Y 0.033; D 0.232; V 0.316; H -0.26; T 0.287; A 0.244
L12: K 0.204; S -0.169; W -0.145; C -0.351
L15: C 0.087; H 0.551; E 0.241; N -0.017; G -0.067; V 0.336; D 0.232; T 0.301; F -0.211; W 0.04; R 0.454; M 0.436; A 0.409; K 0.586; Y 0.278
E2: S 0.37; L 0.21; Q 0.403; M 0.135; N 0.317; R 0.165; C -0.52; H 0.287; P 0.278; K 0.344; V 0.247; D 0.56; Y 0.42; A 0.077; G 0.184; F -0.463; T 0.414
K19: D -0.143; H -0.272; G -0.235; E 0.019; C -0.314; F -0.151; L -0.458; I -0.303; A -0.26
M17: W -0.118; R 0.118; L 0.052; G -0.154; S -0.167; P -0.501; V -0.017; T -0.054; Q 0.013; C -0.283; H -0.348; A -0.224; Y -0.084; N 0.027; K 0.077; D -0.035
L9: M 0.2; N 0.099; P -0.307; H 0.247; F -0.16; I 0.11; S 0.144; D -0.093; Q 0.271; C 0.134; T 0.243; V -0.023; A 0.142; W -0.118; R 0.168; G 0.147; K 0.308; E -0.016; Y -0.024
Y18: G -0.163; C -0.501; D -0.283; R -0.626; H 0.106; W -0.093; M -0.48; A -0.375; P -0.637; N -0.003; S -0.286; Q -0.478; F -0.417; V -0.419; L -0.731; T -0.383; I -0.152
E16: T -0.091; V -0.501; Y -0.54; K -0.059; R 0.062; M -0.439; G -0.152; H -0.294; P -0.018; S -0.301; F -0.372; L -0.698; Q -0.186; I -0.759
T8: N 0.287; G 0.156; V 0.02; I 0.046; C -0.006; M 0.124; D -0.177; Q 0.316; L -0.001; W -0.205; P -0.843; K 0.075; H 0.291; R 0.354; E 0.099; F -0.224; A 0.109; S -0.102
T4: N 0.18; I 0.029; D -0.608; G -0.794; V -0.552; C -0.705; W -0.623; R -0.305; Y -0.307; A -0.309; E -0.042; F -0.32; M 0.142; L -0.247; S 0.056
A14: W -1.39; V -1.08; S -0.181; R -0.741; K -0.844; H -1.05; D -0.806; F -1.05; C -0.804; N -0.57; G 0.062; Q -0.797; T -0.864; P -0.987; E -0.776; M -0.991; L -0.778
Q6: G 0.002; A 0.117; M 0.144; K -0.167; D -0.133; E -0.485; W -0.025; L -0.116; C -0.394; Y -0.206; I -0.04; R -0.003; H -0.282; S -0.015; T -0.191; F -0.211; N 0.046; P 0.026; V -0.117
E5: V -0.189; Y 0.116; S -0.506; P -0.39; R -0.339; C -0.104; A -0.227; M -0.026; H -0.153; W -0.201; F -0.347; N -0.362; D -0.692; I -0.178; T 0.004; Q 0.164; L -0.442
E7: F -1.44; Q 0.1; Y -1.26; D -0.557; V -0.815; K -0.921; N -0.948; A -0.448; W -1.27; R -0.887; T -0.745; P -0.804; L -0.833; G -0.756
W3: P -0.045; A -0.539; N -0.226; Q -0.247; C -0.518; H -0.058; M -0.181; V -0.203; S -0.317; Y -0.354; I -0.275; G -0.424; L -0.168; E -0.431; K 0.681; T -0.202; D 0.1
E13: N -0.415; S -0.304; G -0.215; I -0.742; M -0.222; W -0.697; A -0.028; R -0.172; F -0.887; D -0.182; Q -0.34; T -0.181; L -0.598; H -0.264; V -0.469
L10: M 0.03; F -0.27; P -0.422; G -0.171; S -0.009; V 0.029; N -0.195; H -0.115; E 0.346; D -0.224; Q -0.018; W -0.325; A -0.424; Y -0.024; K 0.028; T -0.226; I -0.35; R -0.208; C -0.057
L11: R -0.635; A -0.364; W -0.619; I -0.564; E -0.628; M -0.357; C -0.17; H -0.457; D -0.801; Q -0.556; K -0.588; S -0.788; P -1.19; T -0.412; N -0.575

Variants of: B2
Test: as above
Conditions: Homo sapiens

Abundance fitness: each site, then its substitutions
R55: I 0.307; C -0.104; A -0.111; G -0.048; D -0.041; H 0.187; Y 0.176; F -0.369; T 0.004; S -0.069; Q -0.1; P -0.113; E -0.129; M 0.154; L 0.223; W -0.286; V -0.161
A54: R -0.179; P -0.073; N 0.081; Y -0.277; M -0.013; Q 0.01; T -0.1; V -0.053; W -0.211
K56: L -0.33; Q -0.178; H -0.012; Y 0.061; R -0.188; M -0.079; C -0.27; P 0.04; I -0.238; E -0.547; T 0.029; S -0.366; G -0.038; N -0.248; D -0.06
